Results as given in US20220119522A1 (DENALI THERAPEUTICS, published 2022).
No end group written: not given here.

T1: human TREM2 full length stalk region peptide (aa 129-172) (human, biotinylated (site not stated))
T1 construct: also called Human TREM2 peptide (aa 129-172); full-length TREM2 stalk peptide
T1 peptide: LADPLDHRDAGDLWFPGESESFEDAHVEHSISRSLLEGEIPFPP

T2: mouse TREM2 full length stalk region peptide (aa 131-169) (mouse, UniProt Q99NH8 131-169, biotinylated (site not stated))
T2 peptide (looked up): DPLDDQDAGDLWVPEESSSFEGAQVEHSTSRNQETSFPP

T3: human TREM2 truncated stalk peptide (aa 149-163) (human, also: biotinylated (site not given here))
T3 construct: also called Human TREM2 peptide (aa 149-163); truncated stalk peptide containing the ADAM10/17 cleavage site
T3 peptide: SFEDAHVEHSISRSL

T4: His-tagged human TREM2 ECD (human, UniProt Q9NZC2 19-172)
T4 construct: Biacore and HDX say only recombinant human TREM2 (ECD); also called recombinant human TREM2; hTREM2
T4 sequence: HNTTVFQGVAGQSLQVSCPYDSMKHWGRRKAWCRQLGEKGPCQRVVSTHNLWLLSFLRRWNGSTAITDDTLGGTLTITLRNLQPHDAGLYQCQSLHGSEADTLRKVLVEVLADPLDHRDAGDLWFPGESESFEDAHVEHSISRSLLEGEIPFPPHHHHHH

T5: human TREM2 on the cell surface (human, UniProt Q9NZC2 19-230)
T5 sequence: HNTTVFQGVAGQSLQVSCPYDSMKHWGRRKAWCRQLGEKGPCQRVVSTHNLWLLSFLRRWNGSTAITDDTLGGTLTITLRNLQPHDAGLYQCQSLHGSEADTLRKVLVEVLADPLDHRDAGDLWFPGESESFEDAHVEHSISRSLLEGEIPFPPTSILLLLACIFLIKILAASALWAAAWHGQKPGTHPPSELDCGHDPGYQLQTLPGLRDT


Tests used:
[1] = biological target: T1, human TREM2 full length stalk region …; experiment: ELISA on biotinylated peptide captured by streptavidin; A450 normalised to isotype control
Protocol: (§1) TREM2 antibodies were evaluated for binding to human and mouse TREM2 stalk region peptides. […] Antibody binding to TREM2 stalk peptides was detected using standard sandwich ELISA. Briefly, a 96-well half-area ELISA plate was coated with streptavidin overnight at 4° C. The following day, biotinylated TREM2 stalk peptides diluted in 1% BSA/PBS were added to the plate and incubated for 1 hour. Antibodies diluted in 1% BSA/PBS were then added and incubated for 1 hour. Antibodies bound to peptide were detected with anti-human kappa-HRP secondary antibody (Bethyl Laboratories, Inc.) diluted in 1% BSA/PBS. Plates were assayed by reaction with a detection reagent (One-step TMB Ultra, Thermo) and measurement of absorbance at 450 nm (A450) by standard spectrophotometry instrumentation (BioTek®). Data are shown as normalized values (fold over background where background=isotype control).

[2] = biological target: T2, mouse TREM2 full length stalk region …; experiment: as above
Protocol: as §1

[3] = biological target: T3, human TREM2 truncated stalk peptide (aa …); experiment: as above
Protocol: as §1

[4] = biological target: T4, His-tagged human TREM2 ECD; experiment: SPR (Biacore), antibody captured via anti-human Fab, recombinant TREM2 ECD injected, 1:1 fit
Protocol: Surface plasmon resonance (Biacore™ 8K instrument) was used to measure anti-TREM2 antibody affinities for human and cynomolgus TREM2 ECD. Anti-TREM2 antibodies were captured using Human Fab Capture Kit (GE Healthcare Life Sciences, Catalog No. 28958325) on a Biacore Series S CM5 sensor chip (GE Healthcare Life Sciences, Catalog No. 29149604). Serial 3-fold dilutions of recombinant human or cynomolgus TREM2 were injected at a flow rate of 30 μL/min. Antibody binding was monitored for 300 seconds, followed by monitoring of antibody dissociation for 600+seconds in HBS-EP+ running buffer (GE Healthcare Life Sciences, Catalog No. BR100669). The binding response was corrected by subtracting the RU value from a blank flow cell. A 1:1 Languir model of simultaneous fitting of kₒₙ and koff was used for kinetics analysis.

[5] = biological target: T5, human TREM2 on the cell surface; experiment: cell-based or functional assay
[6] = biological target: T5, human TREM2 on the cell surface; experiment: cell binding, human macrophages, dose titration

| fold over background (A450) [1] [fold] | fold over background (A450) [2] [fold] | fold over background (A450) [3] [fold] | Kd [4] [nM] | NFAT EC50 (nM), plate coated mAb [5] [nM] | pSyk activation (human macrophages) EC50 (nM) [5] [nM] | EC50 [6] [nM] | Binder | Survival EC50 (nM), plate coated mAb, human macrophages [5] [nM] |
| --- | --- | --- | --- | --- | --- | --- | --- | --- |
| 4.9 | 7 | 1.3 | – | – | – | – | CL0020186 (antibody, V domains shown, also called Clone CL0020186) VH: EVQLVESGGGLVQPGRSLKLSCPASGFTFSYYGMAWVRQAPTKGLEWVASISTGGGNTYYRDSVKGRFTISRDNAKNTLYLQMDSLRSEDTATYYCARGDIGTAYWFTYWGQGTLVTVSS VL: NIQLTQSPSLLSASVGDRVTLSCKGSQNINNYLAWYQQKLGEAPKLLIYKTNSLLTGIPSRFSGSGSGTDYTLTISSLHSEDLATYYCYQYNNGWTFGGGTKLELK | – |
| – | 1.6 | 1.5 | – | – | – | – | CL0020124 (antibody, V domains shown, also called Clone CL0020124) VH: EVQLQQSGPVLVKPGASVKMSCKPSGYTFTDYYMNWVKQSHGKSLEWIGSINPYTGGSSYNQKFRGKATLTVDKSSSTAYMELNSLTSEDSAVYYCARGSYYSNLGFAYWGQGTLVTVSA VL: DVQLTQSPSYLTASPGETITINCRASKSISKYLAWYQEKPGKTNKLLISSGSTLQSGIPSRFSGSGSGTDFTLTISSLEPEDFAMYYCQQYSEYPFTFGSGTKLEIK | – |
| 1.7 | 1.7 | 1.5 | – | – | – | – | CL0020109 (antibody, V domains shown, also called Clone CL0020109) VH: EVQLQQSGPVLVKPGASLKMSCRASGYTFTDYYVHWVKQSHGKSLEWIGLINPYTGTTSYNQRFKGKATLTVDKSSSTAYMEVNSLTSEDSAVYYCARSRVYYGSSLFAFWGQGTLVTVSA VL: DIVMTQSPSSLSVSAGEKVTMSCKSSQSLLNSGNQKNYLAWYQQKPGQPPKLLIYGASTRESGVPDRFTGSGSGTDFTLTISSVQAEDLAVYYCQNDHSYPYTFGGGTKLEIK | – |
| 1.6 | 1.2 | 1.2 | – | – | – | – | CL0020173 (antibody, V domains shown, also called Clone CL0020173) VH: EVKLLESGGGLVQPGSSMRLSCAASGFTFTDFYMNWIRQPAGRAPEWLGFFRNIVDGYTTEYNPSVKGRFTISRDNTQNMLYLQMNTLRAEDTATYYCARSGYSSYIYGGTFAYWGQGTLVTVSS VL: ETVMTQSPTSMSTSIGERVTLNCKASQSVGIHVDWYQQTPGQSPKLLIYGASNRHTGVPDRFTGSGFGRDFTLTISNVEAEDLAVYYCLQYGSIPWTFGGGTKLELK | – |
| 1.5 | 1.3 | 1.3 | – | – | – | – | CL0020214 (antibody, V domains shown, also called Clone CL0020214) VH: QVRLQQSGAELVRPGSSVKLSCKASGYAFSSYWMNWVKQRPGQGLEWIGQIYPGDGDTNYNGNFKGKATLTADNSSSTAYMQLSSLTSEDSAVYFCARRRNGDFGDYAMDYWGQGTSVTVSS VL: QIVLTQSPAIMSASPGEKVTISCSASSSVSYMCWYQQKPGSSPKPWIYRTSTLASGVPARFSGSGSGTSYSLTISSMEAADAATYYCQHYHSYPFTFGAGTKLELK | – |
| 45 | – | – | 4.6 | 25.5 | 5.9 | 0.6 | CL0020141 (antibody, V domains shown, also called Clone CL0020141) VH: EVTLVESGGGLVQPGGSLRLSCATSGFTFTDYYMSWVRQPPGKALEWLGFIRDKANGYTTDYSASVKGRFTISRDNSQNILYLQMNTLRAEDSATYYCSRLLRAQGFAYWGQGTLVTVSA VL: DIVMSQSPSSLGVSIGEKVIMSCTSGQSLLYSNNQKNYLAWYQQKPGQSPKLLIYWASTRESGVPDRFTGSGSGTDFTLTINSVKAEDLAVYYCQQYYRNPFTFGSGTKLEIK | 2 |
| 1.2 | 1.1 | 1.1 | – | – | – | – | CL0020215 (antibody, V domains shown, also called Clone CL0020215) VH: QVQLQQPGAELVKPGASVKMSCKASGYTFTNYWIMWVKQRPGQGLEWIGDIYPSSGSTNYNEKFKNRATLTVDTSSNTAYMQLSSLTSEDSAVYFCSREGYGISAWGQGTTLTVSS VL: QIVLTQSPAIMSASPGEKVTITCSASSSVSYMHWFQQKPGTSPKLWIYSTSNLASGVPARFSGSGSGTSCSLTISRMEAEDAATYYCQQRSSFPLTFGAGTKLELK | – |
| 1.3 | 1.1 | 1.6 | – | – | – | – | CL0020111 (antibody, V domains shown, also called Clone CL0020111) VH: QVQLQQPGADLVKPGASVKMSCKASGYTFTNYWITWVQQRPGQGLEWIGDIYPGSGNTNYNEKFRSKATLTVDTSSNTAYMQLSSLTSEDSAVYYCSREGYGISAWGQGTTLTVSS VL: QIVLTQSPAFMSASPGEKVTITCRASSSVSYMHWFQQKPGTSPKLWIFSTSNLASGVPARFSGSGSGTSHSLTISRMEAEDAATYYCQQRSGYPLTFGAGTKLELK | – |
| 1.4 | 1.2 | 1 | – | – | – | – | CL0020161 (antibody, V domains shown, also called Clone CL0020161) VH: EVQLVESGGGLVQPGRSMKLSCAALGFTFSNYYMAWVRQAPRKGLEWVASISTGGDNTYYRDSVKGRFTISRDNAKSTLYMQMDSLRSEDTATYYCVRSFIVGTTGYYFDYWGQGVMVTVSS VL: DIVLTQSPALAVSLGQRATISCKTNQNVDYYGNNYMHWYQQTPGQQPKLLIYFASNLASGIPARFSGRGSGTDFTLTIDPVEADDTATYYCQQSRNLPTFGGGTKLELK | – |
| 49 | 10 | 1.3 | – | – | – | – | CL0020162 (antibody, V domains shown, also called Clone CL0020162) VH: QIQLVQSGPELKKPGESLKISCKASGYTFTDYAMQWVKQAPEKGLQYMGWINTQTGKPTYADDFKERFVFSLETSATTAYLQINNLKNEDMATYFCVRSYNNYENWFAYWGQGTLVTVSS VL: DIVMTQSPSSLAVSAGETVTINCKSSQSLLYSGNQKNYLAWYQQKPGQSPKVLIYWASTRQFGVPDRFIGSGSGTDFTLTISSVQAEDLAIYYCQQYYNSPITFGSGTKLEIK | – |
| 45 | 45 | – | 5.54 | 16.2 | 30.9 | 14 | CL0020096 (antibody, V domains shown, also called Clone CL0020096) VH: QIQLVQSGPELRKPGETVKISCKASGYTFTTYGMSWVKQAPGKGLKWMGWINTYSGLPRHSDDFKGRFAFSLETSASTAYLQINNLKNEDTATYFCAREVYYGSRKTAWFAYWGQGTLVTVSA VL: DLVMSQSPSSLAVSVGERVTMSCKSSQSLLYSNDQKNYLAWYQQIPGQSPKLLIYWASTRESGVPDRFTGSGSGTDFTLTISSVKAEDLAVYFCQQYYSYPPTFGAGTKLELK | 1.8 |
| 56 | 4.1 | 1.8 | – | – | – | – | CL0020103 (antibody, V domains shown, also called Clone CL0020103) VH: EVQLQQSGPELVKPGASVKISCKTSGYTFTEYTMHWVKESHGKSLEWIGGINPNKGGSSYNQKFKGKATLTVDKSSSTAYMDLRRLTSEDSAVYYCARGGYEYYALDYWGQGTSVTVSS VL: DIVMSQSPSSLTVSVGERVTMSCKSSQSLLYSRNQKNYLAWYQQKPGQSPKLLIYWASTRESGVPDRFTGSGSGTDFSLTISSVKAEDLAVYYCQQYYSYPPTFGGGTKLEIK | – |
| 50 | 51 | 1.4 | – | – | – | – | CL0020164 (antibody, V domains shown, also called Clone CL0020164) VH: EVKLLESGGGLVQPGGSLRLSCAASGFTFTDFYMSWIRQPPGKAPEWLGVIRNKANGFTTEYNTSVKGRFTISRDYTQNILHLQTNTLRAEDTAIYYCARLTYGFDYWGQGVMVTVSS VL: DIVMTQGALPNPVPSGESASITCQSSKSLLHSNGKTYLNWYLQRPGQSPQFLIYWMSTRASGVSDRFSGSGSGTDFTLKISSVEAEDVGVYYCQQFLELPFTFGSGTKLEIK | – |
